Results published in paper PMC9482650, “Quantitative fragmentomics allow affinity mapping of interactomes” (Nature Communications, 2022).
Where a chain is given by its changes, count along the chain named.

B1: SHROOM4, Q9ULL8 (peptide)
chain: ESLLLGPSNF
B2: SLC4A7, Q9Y6M7 (peptide)
chain: KKYVDAETSL

These binders were tested against PDZRN4_1, Q6ZMN7 (assay: holdup assay). Details: plain residues with an end cap or a label only (N-terminal biotin on a linker: ahx).
Design: key: below the threshold = too weak to quantify, mostly under pKd 3.1 to 4

Chain of PDZRN4_1, Q6ZMN7 (Q6ZMN7 213-318): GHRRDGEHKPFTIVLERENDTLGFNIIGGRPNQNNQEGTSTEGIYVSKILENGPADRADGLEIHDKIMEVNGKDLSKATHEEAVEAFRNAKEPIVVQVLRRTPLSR

Binder | pKd
B1 | below the threshold

Same assay, conditions: plain residues with an end cap or a label only (N-terminal biotin on a linker: ttds)

Binder | pKd
B2 | 4.8

These binders were tested against PICK1, Q9NRD5 (assay: holdup assay). Details: plain residues with an end cap or a label only (N-terminal biotin on a linker: ahx).
Chain of PICK1, Q9NRD5 (Q9NRD5 17-115): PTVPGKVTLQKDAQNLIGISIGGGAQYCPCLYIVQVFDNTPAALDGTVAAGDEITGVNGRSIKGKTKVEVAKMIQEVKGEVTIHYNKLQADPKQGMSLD
Design: key: below the threshold = too weak to quantify, mostly under pKd 3.1 to 4

Binder | pKd
B1 | below the threshold

Same assay, conditions: plain residues with an end cap or a label only (N-terminal biotin on a linker: ttds)

Binder | pKd
B2 | below the threshold

Each binder was assayed against T1, LIN7A, O14910 (assay: holdup assay). Details: plain residues with an end cap or a label only (N-terminal biotin on a linker: ahx).
T1 sequence (O14910 103-200, limits assumed, looked up): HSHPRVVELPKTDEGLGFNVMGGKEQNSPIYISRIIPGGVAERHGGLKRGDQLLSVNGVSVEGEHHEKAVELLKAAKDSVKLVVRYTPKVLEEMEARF
Design: key: below the threshold = too weak to quantify, mostly under pKd 3.1 to 4

Binder | pKd
B1 | below the threshold

Same assay, conditions: plain residues with an end cap or a label only (N-terminal biotin on a linker: ttds)

Binder | pKd
B2 | below the threshold

Each binder was assayed against T2, GRIP1_2, Q9Y3R0 (assay: holdup assay). Details: plain residues with an end cap or a label only (N-terminal biotin on a linker: ahx).
T2 sequence (Q9Y3R0 145-248, limits assumed, looked up): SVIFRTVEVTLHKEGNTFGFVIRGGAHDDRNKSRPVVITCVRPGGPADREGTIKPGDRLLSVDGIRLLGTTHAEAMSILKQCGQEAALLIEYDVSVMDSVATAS
Design: key: below the threshold = too weak to quantify, mostly under pKd 3.1 to 4

Binder | pKd
B1 | below the threshold

Same assay, conditions: plain residues with an end cap or a label only (N-terminal biotin on a linker: ttds)

Binder | pKd
B2 | below the threshold

The binders below were run against Inadl_8, Q8NI35 (assay: holdup assay). Details: plain residues with an end cap or a label only (N-terminal biotin on a linker: ahx).
Chain of Inadl_8, Q8NI35 (Q8NI35 1425-1530): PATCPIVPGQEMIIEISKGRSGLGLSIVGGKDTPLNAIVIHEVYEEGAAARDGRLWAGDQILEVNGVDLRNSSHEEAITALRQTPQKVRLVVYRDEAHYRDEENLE
Design: key: below the threshold = too weak to quantify, mostly under pKd 3.1 to 4

Binder | pKd
B1 | 3.57

Same assay, conditions: plain residues with an end cap or a label only (N-terminal biotin on a linker: ttds)

Binder | pKd
B2 | below the threshold

The binders below were run against DLG4_2, P78352 (assay: holdup assay). Details: plain residues with an end cap or a label only (N-terminal biotin on a linker: ahx).
Chain of DLG4_2, P78352 (P78352 155-259): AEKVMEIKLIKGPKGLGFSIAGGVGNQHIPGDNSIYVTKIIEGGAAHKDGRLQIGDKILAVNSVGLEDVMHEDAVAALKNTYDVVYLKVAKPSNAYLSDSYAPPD
Design: key: below the threshold = too weak to quantify, mostly under pKd 3.1 to 4

Binder | pKd
B1 | below the threshold

Same assay, conditions: plain residues with an end cap or a label only (N-terminal biotin on a linker: ttds)

Binder | pKd
B2 | below the threshold

Each binder was assayed against T3, MPP7, Q5T2T1 (assay: holdup assay). Details: plain residues with an end cap or a label only (N-terminal biotin on a linker: ahx).
T3 sequence (Q5T2T1 134-230, limits assumed, looked up): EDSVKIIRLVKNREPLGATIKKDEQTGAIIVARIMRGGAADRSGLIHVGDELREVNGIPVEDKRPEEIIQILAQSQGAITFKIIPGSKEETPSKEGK
Design: key: below the threshold = too weak to quantify, mostly under pKd 3.1 to 4

Binder | pKd
B1 | below the threshold

Same assay, conditions: plain residues with an end cap or a label only (N-terminal biotin on a linker: ttds)

Binder | pKd
B2 | below the threshold

Each binder was assayed against Inadl_4, Q8NI35 (assay: holdup assay). Details: plain residues with an end cap or a label only (N-terminal biotin on a linker: ahx).
Chain of Inadl_4, Q8NI35 (Q8NI35 547-651): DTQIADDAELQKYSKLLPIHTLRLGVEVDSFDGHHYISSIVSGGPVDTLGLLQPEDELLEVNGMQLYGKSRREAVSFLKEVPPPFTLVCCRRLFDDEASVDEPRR
Design: key: below the threshold = too weak to quantify, mostly under pKd 3.1 to 4

Binder | pKd
B1 | below the threshold

Same assay, conditions: plain residues with an end cap or a label only (N-terminal biotin on a linker: ttds)

Binder | pKd
B2 | below the threshold

What follows are binders tested against T4, ARHGEF11, O15085 (assay: holdup assay). Details: plain residues with an end cap or a label only (N-terminal biotin on a linker: ahx).
T4 sequence (O15085 42-136, limits assumed, looked up): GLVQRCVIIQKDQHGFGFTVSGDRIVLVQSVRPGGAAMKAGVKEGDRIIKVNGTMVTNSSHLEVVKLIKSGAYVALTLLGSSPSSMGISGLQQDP
Design: key: below the threshold = too weak to quantify, mostly under pKd 3.1 to 4

Binder | pKd
B1 | below the threshold

Same assay, conditions: plain residues with an end cap or a label only (N-terminal biotin on a linker: ttds)

Binder | pKd
B2 | 3.97

These binders were tested against NOS1, P29475 (assay: holdup assay). Details: plain residues with an end cap or a label only (N-terminal biotin on a linker: ahx).
Chain of NOS1, P29475 (P29475 9-101): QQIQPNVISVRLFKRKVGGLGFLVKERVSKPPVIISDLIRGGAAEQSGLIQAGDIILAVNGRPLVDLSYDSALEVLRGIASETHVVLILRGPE
Design: key: below the threshold = too weak to quantify, mostly under pKd 3.1 to 4

Binder | pKd
B1 | below the threshold

Same assay, conditions: plain residues with an end cap or a label only (N-terminal biotin on a linker: ttds)

Binder | pKd
B2 | 3.58

Each binder was assayed against T5, APBA1_2, Q02410 (assay: holdup assay). Details: plain residues with an end cap or a label only (N-terminal biotin on a linker: ahx).
T5 sequence (Q02410 742-832, limits assumed, looked up): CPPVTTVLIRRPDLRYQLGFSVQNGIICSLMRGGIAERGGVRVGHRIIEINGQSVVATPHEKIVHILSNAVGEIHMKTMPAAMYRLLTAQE
Design: key: below the threshold = too weak to quantify, mostly under pKd 3.1 to 4

Binder | pKd
B1 | below the threshold

Same assay, conditions: plain residues with an end cap or a label only (N-terminal biotin on a linker: ttds)

Binder | pKd
B2 | 3.73

These binders were tested against SNX27, Q96L92 (assay: holdup assay). Details: plain residues with an end cap or a label only (N-terminal biotin on a linker: ahx).
Design: key: below the threshold = too weak to quantify, mostly under pKd 3.1 to 4

Binder | pKd
B1 | below the threshold

Same assay, conditions: plain residues with an end cap or a label only (N-terminal biotin on a linker: ttds)

Binder | pKd
B2 | 5.71

The binders below were run against IL16_4, Q14005 (assay: holdup assay). Details: plain residues with an end cap or a label only (N-terminal biotin on a linker: ahx).
Chain of IL16_4, Q14005 (Q14005 1229-1329): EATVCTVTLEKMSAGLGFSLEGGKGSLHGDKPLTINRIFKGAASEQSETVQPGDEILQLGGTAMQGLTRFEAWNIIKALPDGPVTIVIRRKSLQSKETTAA
Design: key: below the threshold = too weak to quantify, mostly under pKd 3.1 to 4

Binder | pKd
B1 | below the threshold

Same assay, conditions: plain residues with an end cap or a label only (N-terminal biotin on a linker: ttds)

Binder | pKd
B2 | 3.53

What follows are binders tested against T6, LNX2_2, Q8N448 (assay: holdup assay). Details: plain residues with an end cap or a label only (N-terminal biotin on a linker: ahx).
T6 sequence (Q8N448 334-432, limits assumed, looked up): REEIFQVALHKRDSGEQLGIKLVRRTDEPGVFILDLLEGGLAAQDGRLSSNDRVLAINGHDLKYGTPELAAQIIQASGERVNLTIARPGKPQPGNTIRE
Design: key: below the threshold = too weak to quantify, mostly under pKd 3.1 to 4

Binder | pKd
B1 | below the threshold

Same assay, conditions: plain residues with an end cap or a label only (N-terminal biotin on a linker: ttds)

Binder | pKd
B2 | below the threshold

The binders below were run against T7, PTPN13_1, Q12923 (assay: holdup assay). Details: plain residues with an end cap or a label only (N-terminal biotin on a linker: ahx).
T7 sequence (Q12923 1088-1188, limits assumed, looked up): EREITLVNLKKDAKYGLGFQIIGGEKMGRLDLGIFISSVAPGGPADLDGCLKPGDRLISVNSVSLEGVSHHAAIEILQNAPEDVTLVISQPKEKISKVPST
Design: key: below the threshold = too weak to quantify, mostly under pKd 3.1 to 4

Binder | pKd
B1 | below the threshold

Same assay, conditions: plain residues with an end cap or a label only (N-terminal biotin on a linker: ttds)

Binder | pKd
B2 | below the threshold

What follows are binders tested against PARD3_3, Q8TEW0 (assay: holdup assay). Details: plain residues with an end cap or a label only (N-terminal biotin on a linker: ahx).
Chain of PARD3_3, Q8TEW0 (Q8TEW0 582-685): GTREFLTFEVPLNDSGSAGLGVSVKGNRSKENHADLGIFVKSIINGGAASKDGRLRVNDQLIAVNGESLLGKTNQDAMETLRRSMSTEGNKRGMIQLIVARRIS
Design: key: below the threshold = too weak to quantify, mostly under pKd 3.1 to 4

Binder | pKd
B1 | below the threshold

Same assay, conditions: plain residues with an end cap or a label only (N-terminal biotin on a linker: ttds)

Binder | pKd
B2 | 3.62

Each binder was assayed against MAGI1_1, Q96QZ7 (assay: holdup assay). Details: plain residues with an end cap or a label only (N-terminal biotin on a linker: ahx).
Chain of MAGI1_1, Q96QZ7 (Q96QZ7 1-106): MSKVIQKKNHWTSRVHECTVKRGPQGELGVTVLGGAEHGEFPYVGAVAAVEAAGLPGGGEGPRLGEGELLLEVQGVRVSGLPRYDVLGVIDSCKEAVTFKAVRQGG
Design: key: below the threshold = too weak to quantify, mostly under pKd 3.1 to 4

Binder | pKd
B1 | below the threshold

Same assay, conditions: plain residues with an end cap or a label only (N-terminal biotin on a linker: ttds)

Binder | pKd
B2 | below the threshold

These binders were tested against GRIP2_4, Q9C0E4 (assay: holdup assay). Details: plain residues with an end cap or a label only (N-terminal biotin on a linker: ahx).
Chain of GRIP2_4, Q9C0E4 (Q9C0E4 446-548): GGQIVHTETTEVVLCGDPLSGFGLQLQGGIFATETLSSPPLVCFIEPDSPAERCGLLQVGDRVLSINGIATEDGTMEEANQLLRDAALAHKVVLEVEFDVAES
Design: key: below the threshold = too weak to quantify, mostly under pKd 3.1 to 4

Binder | pKd
B1 | below the threshold

Same assay, conditions: plain residues with an end cap or a label only (N-terminal biotin on a linker: ttds)

Binder | pKd
B2 | below the threshold

Each binder was assayed against Inadl_2, Q8NI35 (assay: holdup assay). Details: plain residues with an end cap or a label only (N-terminal biotin on a linker: ahx).
Chain of Inadl_2, Q8NI35 (Q8NI35 238-335): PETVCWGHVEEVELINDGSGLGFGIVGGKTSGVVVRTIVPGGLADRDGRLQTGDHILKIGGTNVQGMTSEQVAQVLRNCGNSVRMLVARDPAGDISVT
Design: key: below the threshold = too weak to quantify, mostly under pKd 3.1 to 4

Binder | pKd
B1 | below the threshold

Same assay, conditions: plain residues with an end cap or a label only (N-terminal biotin on a linker: ttds)

Binder | pKd
B2 | below the threshold

These binders were tested against T8, APBA2_2, Q99767 (assay: holdup assay). Details: plain residues with an end cap or a label only (N-terminal biotin on a linker: ahx).
T8 sequence (Q99767 654-744, limits assumed, looked up): T5 sequence (Q02410 742-832, limits assumed, looked up) with R10K, R15K, P59A, H65Q, I66A, A70S, Y84F, A89G
Design: key: below the threshold = too weak to quantify, mostly under pKd 3.1 to 4

Binder | pKd
B1 | below the threshold

Same assay, conditions: plain residues with an end cap or a label only (N-terminal biotin on a linker: ttds)

Binder | pKd
B2 | below the threshold

These binders were tested against T9, SNTG1, Q9NSN8 (assay: holdup assay). Details: plain residues with an end cap or a label only (N-terminal biotin on a linker: ahx).
T9 sequence (Q9NSN8 52-150, limits assumed, looked up): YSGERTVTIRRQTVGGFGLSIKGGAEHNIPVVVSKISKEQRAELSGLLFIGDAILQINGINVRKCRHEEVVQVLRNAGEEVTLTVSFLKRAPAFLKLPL
Design: key: below the threshold = too weak to quantify, mostly under pKd 3.1 to 4

Binder | pKd
B1 | below the threshold

Same assay, conditions: plain residues with an end cap or a label only (N-terminal biotin on a linker: ttds)

Binder | pKd
B2 | 3.82

Each binder was assayed against T10, SYNJ2BP, P57105 (assay: holdup assay). Details: plain residues with an end cap or a label only (N-terminal biotin on a linker: ahx).
T10 sequence (P57105 8-110, limits assumed, looked up): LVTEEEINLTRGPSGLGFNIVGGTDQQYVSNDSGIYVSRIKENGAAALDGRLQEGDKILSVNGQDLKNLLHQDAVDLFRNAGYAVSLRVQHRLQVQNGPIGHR
Design: key: below the threshold = too weak to quantify, mostly under pKd 3.1 to 4

Binder | pKd
B1 | below the threshold

Same assay, conditions: plain residues with an end cap or a label only (N-terminal biotin on a linker: ttds)

Binder | pKd
B2 | 4.28

These binders were tested against DLG4_1, P78352 (assay: holdup assay). Details: plain residues with an end cap or a label only (N-terminal biotin on a linker: ahx).
Chain of DLG4_1, P78352 (P78352 62-152): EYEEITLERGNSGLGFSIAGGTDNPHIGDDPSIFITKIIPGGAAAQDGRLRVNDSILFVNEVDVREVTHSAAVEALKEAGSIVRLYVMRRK
Design: key: below the threshold = too weak to quantify, mostly under pKd 3.1 to 4

Binder | pKd
B1 | below the threshold

Same assay, conditions: plain residues with an end cap or a label only (N-terminal biotin on a linker: ttds)

Binder | pKd
B2 | 3.73

These binders were tested against T11, NHERF3_3, Q5T2W1 (assay: holdup assay). Details: plain residues with an end cap or a label only (N-terminal biotin on a linker: ahx).
T11 sequence (Q5T2W1 238-333, limits assumed, looked up): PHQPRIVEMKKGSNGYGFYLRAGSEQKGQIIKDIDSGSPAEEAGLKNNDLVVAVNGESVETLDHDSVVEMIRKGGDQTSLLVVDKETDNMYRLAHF
Design: key: below the threshold = too weak to quantify, mostly under pKd 3.1 to 4

Binder | pKd
B1 | below the threshold

Same assay, conditions: plain residues with an end cap or a label only (N-terminal biotin on a linker: ttds)

Binder | pKd
B2 | below the threshold

What follows are binders tested against GIPC2, Q8TF65 (assay: holdup assay). Details: plain residues with an end cap or a label only (N-terminal biotin on a linker: ahx).
Chain of GIPC2, Q8TF65 (Q8TF65 112-203): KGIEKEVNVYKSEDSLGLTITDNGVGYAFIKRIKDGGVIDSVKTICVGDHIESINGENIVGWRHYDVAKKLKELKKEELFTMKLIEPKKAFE
Design: key: below the threshold = too weak to quantify, mostly under pKd 3.1 to 4

Binder | pKd
B1 | below the threshold

Same assay, conditions: plain residues with an end cap or a label only (N-terminal biotin on a linker: ttds)

Binder | pKd
B2 | 3.68

Each binder was assayed against T12, SNTA1, Q13424 (assay: holdup assay). Details: plain residues with an end cap or a label only (N-terminal biotin on a linker: ahx).
T12 sequence (Q13424 82-180, limits assumed, looked up): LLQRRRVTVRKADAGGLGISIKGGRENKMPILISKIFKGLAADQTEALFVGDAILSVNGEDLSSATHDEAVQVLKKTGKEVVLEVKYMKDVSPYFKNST
Design: key: below the threshold = too weak to quantify, mostly under pKd 3.1 to 4

Binder | pKd
B1 | below the threshold

Same assay, conditions: plain residues with an end cap or a label only (N-terminal biotin on a linker: ttds)

Binder | pKd
B2 | 4.14
